Measurements as given in EP3259288B1 (Innate Pharma, dated 2026).

T1: human CD73 expressed at the cell surface (human, UniProt P21589 27-549)
T1 sequence: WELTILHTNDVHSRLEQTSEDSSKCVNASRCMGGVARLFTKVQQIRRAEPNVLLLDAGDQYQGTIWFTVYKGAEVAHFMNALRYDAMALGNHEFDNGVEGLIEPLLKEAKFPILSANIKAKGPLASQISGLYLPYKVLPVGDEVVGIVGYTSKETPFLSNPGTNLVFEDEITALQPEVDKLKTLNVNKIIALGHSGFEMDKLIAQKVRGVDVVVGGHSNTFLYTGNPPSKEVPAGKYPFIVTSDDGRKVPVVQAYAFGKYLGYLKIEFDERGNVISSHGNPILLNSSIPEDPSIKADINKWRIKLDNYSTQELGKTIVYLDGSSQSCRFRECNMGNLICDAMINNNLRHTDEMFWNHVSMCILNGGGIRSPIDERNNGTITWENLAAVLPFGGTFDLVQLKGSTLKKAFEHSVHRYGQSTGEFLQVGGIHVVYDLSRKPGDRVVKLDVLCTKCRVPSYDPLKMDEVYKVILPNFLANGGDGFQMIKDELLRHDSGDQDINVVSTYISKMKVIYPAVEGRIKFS

T2: recombinant human CD73-His extracellular domain recombinant protein (soluble dimer) (human, UniProt P21589 27-547, limits assumed)
T2 sequence: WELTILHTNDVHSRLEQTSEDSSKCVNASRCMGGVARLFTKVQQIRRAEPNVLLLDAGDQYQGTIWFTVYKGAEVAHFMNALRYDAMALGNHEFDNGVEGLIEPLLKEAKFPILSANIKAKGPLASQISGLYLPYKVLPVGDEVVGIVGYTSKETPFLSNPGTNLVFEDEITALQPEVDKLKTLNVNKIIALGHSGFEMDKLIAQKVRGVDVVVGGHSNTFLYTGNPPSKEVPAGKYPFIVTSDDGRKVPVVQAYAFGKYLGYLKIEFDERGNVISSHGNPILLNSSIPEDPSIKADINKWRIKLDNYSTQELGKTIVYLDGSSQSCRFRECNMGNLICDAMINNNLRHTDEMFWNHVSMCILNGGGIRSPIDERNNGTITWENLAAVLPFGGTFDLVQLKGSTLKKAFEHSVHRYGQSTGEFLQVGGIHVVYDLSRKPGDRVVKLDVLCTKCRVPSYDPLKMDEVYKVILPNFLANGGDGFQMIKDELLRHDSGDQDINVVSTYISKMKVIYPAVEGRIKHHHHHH


Key:
[1] = molecular target: T1, human CD73 expressed at the cell surface; assay: cell-based or functional assay
[2] = molecular target: recombinant human CD73-His extracellular domain recombinant protein (soluble dimer) (human) (UniProt P21589); assay: ELISA, recombinant human CD73 coated at 5 µg/ml, antibody titrated
[3] = molecular target: T1, human CD73 expressed at the cell surface; assay: cell-based or functional assay; remark: listed apart in the source
[4] = molecular target: T2, recombinant human CD73-His …; assay: cell-based or functional assay
[5] = molecular target: T1, human CD73 expressed at the cell surface; assay: cell-based or functional assay; remark: listed apart in the source
[6] = molecular target: T1, human CD73 expressed at the cell surface; assay: cell-based or functional assay; remark: listed apart in the source

Molecule	down-modulation of CD73 expression on MDA-MB-231 cells (10 µg/ml antibody, time course) [1]	EC50 [2]	decrease of enzymatic activity of cellular CD73 (MDA-MB-231) [3]	EC50 for CD73 blockade (enzymatic activity of soluble recombinant human CD73-his, Cell Titer Glo luciferase read-out) [4]	EC50 for neutralization of enzymatic activity of cellular CD73 (MDA-MB-231 cells, free phosphate from AMP hydrolysis, Malachite Green) [5]	EC50 for neutralization of cellular CD73 enzymatic activity, mean over MDA-MB-231, H292 and A375 cells (N=8) [6]	EC70 for neutralization of cellular CD73 enzymatic activity, mean over MDA-MB-231, H292 and A375 cells (N=8) [6]	EC100 for neutralization of cellular CD73 enzymatic activity, mean over MDA-MB-231, H292 and A375 cells (N=8) [6]	EC50 for neutralization of cellular CD73 enzymatic activity, mean over MDA-MB-231, H292 and A375 cells (N=2) [6]
antibody 11E1 (antibody, V domains shown) VH: EIQLQQSGPELVKPGASVKVSCKASGYAFTSYNMYWVKQSHGKSLEWIGYIDPYNGGTSYNQKFKGKATLTVDKSSSTAYMHLNSLTSEDSAVYYCARGYGNYKAWFAYWGQGTLVTVSA VL: DAVMTQTPKFLLVSAGDRVTITCKASQSVTNDVAWYQQKPGQSPKLLIYYASNRYTGVPDRFTGSGYGTDFTFTISTVQAEDLAVYFCQQDYSSLTFGAGTKLELK			> 75%	0.41 µg/mL	0.195 µg/mL	0.1 µg/mL	0.15 µg/mL	0.52 µg/mL	
antibody 8C7 (antibody, V domains shown) VH: EVQLQQSGPELVKPGASVKVSCKASGYAFASYNMNWVKQSHGKSLDWIGYIDPYNGGSSYNLTFKGKATLTVDKSSTTAYMHLNSLTSEDSAVYYCARGYGNYKAWFAYWGQGTLVTVSA VL: SIVMTPTPKFLLVSAGDRVTITCKASQSVSNDVAWYQQKPGQSPKLLIYYASTRYTGVPDRFTGSGYGTDFTFTISTVQAEDLAVYFCQQDYSSLTFGAGTKLELKR			> 75%	1.29 µg/mL	0.319 µg/mL				0.21 µg/mL
antibody 3C12 (antibody, V domains shown) VH: QIQLQQSGPELVKPGASVKVSCKASGYAFASYNMNWVKQSHGKSLDWIGYIDPYNGGSSYNLTFKGKATLTVDKSSTTAYMHLNSLTSEDSAVYYCARGYGNYKAWFAYWGQGTLVTVSA VL: DVVMTQTPKFLLVSAGDRVTITCKASQSVSNDVAWYQQKPGQSPKLLIYYASTRYTGVPDRFTGSGYGTDFTFTISTVQAEDLAVYFCQQDYSSLTFGAGTKLELKR			> 75%	0.41 µg/mL	0.21 µg/mL	0.14 µg/mL	0.18 µg/mL	0.3 µg/mL	

Results, then the molecule that gave them:

down-modulation of CD73 expression on MDA-MB-231 cells (10 µg/ml antibody, time course) [1]	EC50 [2]	decrease of enzymatic activity of cellular CD73 (MDA-MB-231) [3]	EC50 for CD73 blockade (enzymatic activity of soluble recombinant human CD73-his, Cell Titer Glo luciferase read-out) [4]	EC50 for neutralization of enzymatic activity of cellular CD73 (MDA-MB-231 cells, free phosphate from AMP hydrolysis, Malachite Green) [5]	EC50 for neutralization of cellular CD73 enzymatic activity, mean over MDA-MB-231, H292 and A375 cells (N=8) [6]	EC70 for neutralization of cellular CD73 enzymatic activity, mean over MDA-MB-231, H292 and A375 cells (N=8) [6]	EC100 for neutralization of cellular CD73 enzymatic activity, mean over MDA-MB-231, H292 and A375 cells (N=8) [6]	EC50 for neutralization of cellular CD73 enzymatic activity, mean over MDA-MB-231, H292 and A375 cells (N=2) [6]	Molecule
> 50%	0.037 µg/mL								antibody 7G2 (Life Technologies Corp.)
		> 75%	0.33 µg/mL	0.209 µg/mL	0.13 µg/mL	0.19 µg/mL	0.68 µg/mL		antibody 6E1 (antibody, V domains shown) VH: EFQLQQSGPELVKPGASVKVSCKASGYAFTSYNMYWVKQSHGKRLEWIGYIDPYNGGSSYNQKFKGKATLTVDKSSSTAYMHLNNLTSEDSAVYYCARGYNNYKAWFAYWGQGTLVTVSA VL: SIVMTQTPKFLLVSAGDRVTITCKASQSVTNDVAWYQQKPGQSPKLLIYYASNRYTGVPDRFTGSGYGTDFTFTISTMQAEDLAVYFCQQDYSSLTFGAGTKLELK
